Assay: soluble on expression in E. coli; label from the status in PepcDB or PDB records
In the case of “MFSTKKSQGNLHKYIQRQSTDEFAVKAREHNYRARSAFKLIEINEKFKFLKPESTVIDIGCAPGSWLQVVVQKCPNGYASGVDLQNVLPIRGADILSLSDITDPAVKLKIREKLAHRQVDVVLSDMAPNPTGDNATDHLRLIELCRSVFRLFSVENEIELVKNGVYLCKIWDGSARAEFVRELSDRFSTVKTVKPTACRDNSAELYLFCRNFKK”, the “soluble on expression in E. coli” value is reported as “not soluble”. In the case of “DTRNEAEACLRYVKTKFARTMLGILKATQDNPKETWRLVPLQDFTAESDIDWTQPVAEIDRQLYRKYGLNESEIAFVEEKVRPMD”, the “soluble on expression in E. coli” value is reported as “not soluble”. With “MRGSHHHHHHGSEEASSTGRNFNVEKINGEWHTIILASDKREKIEDNGNFRLFLEQIHVLEKSLVLKFHGRVRLLNNWDCSELSMVADKTEKAGEYSVTYDGFNTFTIPKTDYDNFLMAHLINEKDGETFQLMGLYGREPDLSSDIKERFAQLCEEHGILRENIIDLSNANRCLQARE” the “soluble on expression in E. coli” value was “soluble”. With “MAHHHHHHMKSTQSNLNDEEKVMNNNEKIIKNSYGELLSGCIKNKSSDMNTGDVYPCNDKNTKIVSIKNVYNNLYKTSDSLFFNEENEENRMENCIIRNDGRDMENKFSLYINNAENKDDNNMNNNKNDNINDNINDNINDNINDNINDNINDNINDNINNNINDNINNNIYHNQNNNIYHNIYHNNIINDGVIINEHTSHGDRSSFLNNNKNYNISNYTNHGHNINLNEEKNEKVYMHRNENNEKIHYSNNKDYIEKGNEKSVSSKKGEETYTNNSYNIHLKNMDVKNNERDMCKTMVNNSNIKENKKYSNKTIQQEENTEHEYNIINEEEEEHIKLFKNMNLEEIKNVLSKNDASTLKILLCTDNHLGYKENNSIQKKDSFNSFEEILFIAKKLNVDMILNSGDLFHKNKVSEYTLFKSMYIIRKYCHINENDKEMQQDDNINNNIYPNDLNNDDKSVSKAISEDEFCNMYNVQVKEIKNYKYEYYKNEHTLNNRNNIFDDTNDCMSNKSFIQDKNENLYKDDEDNTNGVKLLQRNDEMNNSDHPGEYLNYRNGKKQIKYYNKLKENNNEFFNKLKICSVNQKFKKLIPFYTIHGNHDYPYSYEYISPLDILNISNLINYIGKNNLNNIVVKPILLNKYKSKISIYAVGWMKDERLYRSFENNEVKFILPSDYKNRINILVLHQNRYIRNAYGNNTKNFIKESFIPKFIDLVIWGHEHFSKPYLEESILNSFYNIQLGSSVRTSICPNEYGDKFIGLLEIKNQRFRFLKINLETVRPFEMKDIKLADYELNFKSESVLKEFLHEQTHAILEKIKNNFSHEIKKYFFFKQLFHTKNKLETNTNKKHQTEYNNINICTKEINSHLNDYQDENLYKSLISISKEDINNFYNNLKNEDFYSSTFIHFAFADPYDTFDLLKIKKEVYEKPLLKIKVEYDDVNIINTQLFGSLFINSIANPSEFLSFYRKKIRQRDIYNNNDNNNDNINDNNNNNDHGKNNTNHDTYNNNYNNNRIDEDEGDKDLHNMEYINEYNKVFDILFDYCDIKNKLLILDENVIMDTIQNFILNTNSSFNFNTNVTSDFTSINSMVDKSFKNKVESIEKQMGNMSAENITDAYLTDVLKKIKNTS” the “soluble on expression in E. coli” value was “not soluble”. With “MSMTDLLNAEDIKKAVGAFSATDSFDHKKFFQMVGLKKKSADDVKKVFHMLDKDKSGFIEEDELGFILKGFSPDARDLSAKETKMLMAAGDKDGDGKIGVDEFSTLVAES” the “soluble on expression in E. coli” value was “soluble”. For “MSLRAGTEETERGHTALTVEGIGRRRGSEERETPERGDKEEGKEQVKRETAGGTRSSSPQKQRGKSTTRRLSVAGLSSERTQSNFEIHRELEDQTDDAMSGAGGIDCSMSGTTATVVLHIHALKKLFVAHVGDSRAVIARREHASSRAVAGGSDGFRQETRNDSRMLQQQTSSEPRETAEDRGCRSAGTGTDCRPLSRLMAFDLTNDHKPTNEIEKQRIMKAGGQVRRLEGDVPHRVFLKNRLFPGLAMSRAIGDTIATQAGVIPDPEVRGYQQSQSDEGHHHHHH”, the “soluble on expression in E. coli” value was “soluble”. In the case of “MAKNTSCGVQLRIRGKVQGVGFRPFVWQLAQQLNLHGDVCNDGDGVEVRLREDPEVFLVQLYQHCPPLARIDSVEREPFIWSQLPTEFTIR”, the “soluble on expression in E. coli” value is reported as “soluble”. With “MGSDKIHHHHHHMKNLLVVLLSLVSVLSFSVSLNDVLQTALASSTDYQIAQISLESATMDYEKAKLEATNKRSELSAELSYYNNLQSYRNSLKSAYQDVLGRIFNLLTADLSYEIAQLNFENAQEDYKTSQELFKKNLISENDLKDSELTLEEASNNLLSAQKDLEEAQKDYEEIFSVEVSEIELPLIDYQNLVGEDEYLDNLSSVKIAELNMKIAEYDLNNLSASASKYEQKKAELNYKKSKMNYDEALKEAKDSYKSTLDSLEIAFLNLKVLKEKIELNENILKDYQERYEKGLISKKELNTQKINLLNIKKNYLNSLRSYYISIVNLLIDAGKEVSF” the “soluble on expression in E. coli” value was “not soluble”. In the case of “MNKKRMIAMVSTALLVTGCAEVGNAQTVAVENSGQSVQKNIVKSIQSQANPLKTIEPSKPFEDLKPLKKMIGNAQYVGLGENTHGSSEIFTMKFRLVKYLVTEMGFTNFAMEEDWGNGLKLNEYIQTGKGNPREFLKLLYPTDEIIAMIEWMKDYNADPSNKKKIQFIGLDLKALDQGSFNKVIDYVRLHRPDLLAEVEENYKELSSFTGSIQEYMKLTPKLKEKFKANAERVARLLKDENEQANTEIIPSEYIWAKATASAIEKFTTMLLPNDYPSIIKLHEQYLADHAMWAQETFGGKTMVWAHNIHIAKGIIDEKLYPYVAGQFLKERLDNNYVTIGSTTTEGNFTLYSEYNPSTGGKITTDTIPQDVKSFNYTLGKVPYKMFLLDNRHLKGQAEKWVKAKRPLLSIGGQILPNSSVYFDTSLLEQFDIIFHIRKTSPSHIKLEHHHHHH”, the “soluble on expression in E. coli” value is reported as “soluble”. With “MGSDKIHHHHHHMQPHPETTPVTSCTIIDATDRSIRQTLGETSTLARLIWVDAGLASPPLCSGLARCGRCRVRITEAAPAPHEDDREFFSAEDISAGWRLACRHAPAHGMVVHVPLPVMPHRHASRPKHPGPFRLAVDLGTTSLQWSLLAPDGTVAAQGSETNPQMGAGSDVMSRIAMARSDKGRGRLRELVLQALRRIVADVEGTPATADAVPPAGSGDEPTTACGYESRVEELCVAGNTAMTAILADESVEGLASAPYRLEMRGGTALALPGLPPAWIPPLPAPFVGGDLSAGYLAVLTDHAPAFPFVLADLGTNGEFVLALSPERTLVTSVALGPALEGIGLTFGTVAQRGAITSFTLTPGGLVPYVLDGGEADGISGTGYISLVHALLRAGLLDVDGRFIQSPSSPLAARMARSIVSHRGEPCLPLARGLYLAARDIEEILKVKAAFSLAFERLLATAQMPSHALSGIHLAGALGQHALPADLEGLGFIPPGSGGRTRAVGNTSLRGAELLLTSPPLRDTLNTWREGCTVVDLTAAPDFSAAFLRHMHFHF” the “soluble on expression in E. coli” value was “not soluble”. In the case of “MKLTGSKILIECLKEQGVDTIFGFPGGAVLNIYDELYRSQNEIRHILTSHEQGAAHAADGYARATGKVGVCLATSGPGATNLVTGIATAYMDSVPMVAITGQVATPLLGKDSFQEVDITGITMPITKHNFIVKDVNKLADIVRRAFYIAKEGRPGPVLIDICKDVTAAYAEYEPKSPQELPEVPVRVDEKCIDEAAEAINKAERPVILAGGGVSIAGANKELFEFATNAQIPVTTTLMGMGAFPGTHELFMGMIGMHGTKTTNMAVSESDLFIAIGARFSDRVISNVQRFAPKASIMHIDIDPAEIGKNINVQYALEGNIKKILQLLNERVKKKECTDWVRKINEWKELYPLKYPQDDKLHPQYIIERMYELTKGEAIITTEVGQHQMWAAQFYKYTSPRQFLSSGGLGTMGYGLGACIGARIGRPDKKVINVAGDGSFRMNCNELATAVEYKLPIIVAIFNNHALGMVRQWQQLFYGGRYSSTSLDRCTDFKALAEAYGAIGINVTAKEEVDEALNRALASEDTPVVINFEIDKDEMVFPIVPPGAPLSELIEE”, the “soluble on expression in E. coli” value is reported as “not soluble”. With “MKVLCYGVRDVELPIFEACNKEFGYDIKCVPDYLNTKETAEMAAGFDAVILRGNCFANKQNLDIYKKLGVKYILTRTAGTDHIDKEYAKELGFPMAFVPRYSPNAIAELAVTQAMMLLRHTAYTTSRTAKKNFKVDAFMFSKEVRNCTVGVVGLGRIGRVAAQIFHGMGATVIGEDVFEIKGIEDYCTQVSLDEVLEKSDIITIHAPYIKENGAVVTRDFLKKMKDGAILVNCARGQLVDTEAVIEAVESGKLGGYGCDVLDGEASVFGKDLEGQKLENPLFEKLVDLYPRVLITPHLGSYTDEAVKNMVEVSYQNLKDLAETGDCPNKIK” the “soluble on expression in E. coli” value was “soluble”. In the case of “MLTVGILGGGQLGWMTILEGRKLGFKFHVLEDKENAPACRVADRCFRTGQISEFVDSCDIITYEFEHIKDEVLEKCESKLIPNPQALYVKKSRIREKLFLKKHGFPVPEFLVIKRDEIIDALKSFKLPVVIKAEKLGYDGKGQYRIKKLEDANQVVKNHDKEESFIIEEFVKFEAEISCIGVRDREGKTYFYPQPFNKHEEGILIYNYVPYAKLKEAEEITKRLMELLDIVGVFTVEFFLLKDGRVLINEFAPRVHNTGHWTLDGAYTSQFENLLRAITEMPLGSTELKLPSGMVNILGKSYEEIPLKEILSVEGAKLYWYGKEKKPRRKVGHVNVVGRSKEEVVEKVERVFTLLKGSREKLPAP”, the “soluble on expression in E. coli” value is reported as “soluble”. With “MIFCTVGSGIEGYEQSFSKISVEGYDTSVHEFPLKLALAKHFASCGKIVDIDVPRDFKKRILKSPLFIIFHAKEGESPVDKALELSGTDVGGWNVVVKSLPGQQMYRDPGGVDRFKGERTLIVKVYDTPSTLSKIDLQIGLCKHFSSCGEVTGISVLVHGNLCCHESKARVDIMGKGCVDKALELSGRTADGWKIVVYFVVPPAGRKLKPTGSGHPTIGVERMKKAELKKKAKMEMMDKGKKKRKTTE” the “soluble on expression in E. coli” value was “not soluble”. For “MSSQPNQSLIDGIRCLQYLVSSDRAIGCRELARLMDINTTRVNRLLMTMASIGLTMQDEHRRYLPGPGIHALAAQAIRGSALFSHALPILERHAPKDIVVALGVLWEDQIIYIYHSTPGSQGSQALAGFRMYPAWQSVPGVALLAAESDEALMQRFTPEQWRNLAPHVAQQRQRGYVLWHHADGEVSMAQPLGKHAAALAFAGMWRIDEAEAAARLQALKALNQLIAQ”, the “soluble on expression in E. coli” value was “not soluble”. With “MLTGLLDVPYRKSFALLEELLERREAEEQTLAISTLATQLKMQQNTILQSVALLQTEIEKNGWENLFSLSANAKEITFWFAPYFQLSFLMPYFVKKSFAYQVLTYAFNHNAIDSKHFEKVLEISSSTFTRKIGQLNQWLQKYQIEINLKRTNVLVGKEKDIRIFFMMLFWNNYSEGDWPLHTITKKEVHSLFRRLKHSVSFNTTQDFTKDLIFSAVILARWKEGFFIKETFVEEEAIVNPFVNLSEFELFFKEEALHQVPTKFIQKEGLFAFFLLTISVSYATQDVLEIPAARMHMVQLLGSPIKEIIYQLTSFYQIKLTFHEYLYLYTSIQNLSVFFKTFVTIANPFVQESFLKEALQKIQVSTKM” the “soluble on expression in E. coli” value was “not soluble”. For “MLPPGMVAAESDFYLRRLWGLPHEDLKSEPRYLATFTVGINQKANIDACVKKFSENFTIVLFHYDGRVTEWDEFEWSKTAIHISVRKQTKWWYAKRFLHPDIVARYDYIFVWDEDLGVEHFNAEEYVKMVKKHGLEISQPGLEPNQGLTWQMTKRRGDMEVHKITEERPGWCSDPHLPPCAAYVEIMAPVFSRNAWRCVWHVIQNDLVHGWGLDFALRRCVEPAHEKIGVVDSQWVVHQSFPSLGNQGEATDGKAPWQGVRDRCKKEWTMFQSRMANAEKDYFKSLQVEGSSNSTATTI”, the “soluble on expression in E. coli” value was “soluble”. In the case of “MASDVTVNVSAEKQVIRGFGGMNHPAWAGDLTAAQRETAFGNGQNQLGFSILRIHVDENRNNWYKEVETAKSAVKHGAIVFASPWNPPSDMVETFNRNGDTSAKRLKYNKYAAYAQHLNDFVTFMKNNGVNLYAISVQNEPDYAHEWTWWTPQEILRFMRENAGSINARVIAPESFQYLKNLSDPILNDPQALANMDILGTHLYGTQVSQFPYPLFKQKGAGKDLWMTEVYYPNSDTNSADRWPEALDVSQHIHNAMVEGDFQAYVWWYIRRSYGPMKEDGTISKRGYNMAHFSKFVRPGYVRIDATKNPNANVYVSAYKGDNKVVIVAINKSNTGVNQNFVLQNGSASNVSRWITSSSSNLQPGTNLTVSGNHFWAHLPAQSVTTFVVNRLEHHHHHHHH”, the “soluble on expression in E. coli” value is reported as “soluble”.

Source: the DeepSol protein solubility set
